No end group written: not given here.
What was measured:
Type in all cases: biochemical
[1] = target: cAMP-dependent protein kinase (Homo sapiens, UniProt P17612); assay: Radioactive kinase assay of peptide substrates (32P incorporation, P81 filter)
Method: Radioactive kinase assays were carried out as described in Walton et al., as modified and described here. Five μl Promega Peptide 1 (SEQ ID NO:1) were added to a reaction mixture containing 20mM Tris HCl (pH 7.4), 10 mM MgCl2, 4 micrograms (μg) of cAMP-dependent protein kinase (both catalytic and regulatory subunits), in the presence or absence of 2 micromolar (μM) cAMP, in a volume of 50 μl.
The reaction began with the addition of 10 μl of solution containing 0.15 mM [γ32 P] ATP (about 0.05 Ci/mmol) and 10 mM MgCl2. After a two minute incubation, the reaction was terminated by the addition of 30 μl of H3 PO4 to a final concentration of 0.5%. To measure incorporation of radiolabelled phosphate into the peptide substrate, half the reaction mixture was spotted onto a Whatmann P81 filter. The filters were washed four times in a solution containing 0.5% H3 PO4. Each wash lasted at least five minutes. After washing, the radioactivity present on the filters was measured in a scintillation counter.

[2] = target: T1, Endoprotease Lys C (Lysobacter enzymogenes, UniProt Q7M135); assay: Assay of pure proteases using modified peptides, agarose gel; conditions: 90 minutes at 37° C., 0.1 to 0.001 μg protease
T1 construct: purchased Promega Corp., Madison, Wis
Method: The proteases Modified Trypsin [sequencing grade] (Promega Corp., Madison, Wis.) and Endoprotease Lys C [sequencing grade] were dissolved in A buffer (50 mM ammonium bicarbonate, pH 7.8). These stocks were diluted with A buffer to produce stocks containing […] protease per 4 μl of liquid. Independent incubations of 4 μl of each of the different protease concentrations were performed with Promega Peptides 5 (SEQ ID NO:5), 6 (SEQ ID NO:6), 7 (SEQ ID NO:7) (5 μl of the stocks described above) in a 20 μl reaction mixture containing: 5 μl peptide; 4 μl protease; and 11 μl A buffer.
After 90 minutes at 37° C., the samples were loaded into a 0.8% agarose gel made in 20 mM Tris, pH 8.0. The samples were electrophoresed at 150 V. When the control peptide sample had migrated about 0.5 inch from the loading well, the gels were photographed on a transilluminator as described above.
Reference is made to FIG. 13, which is a photograph of the agarose gel used to analyze the peptide species produced in the digestion of Promega Peptide 6 (SEQ ID NO:6) by modified trypsin and Endoprotease Lys C. The gel was photographed under UV light as described in Example 1 and the gel is oriented such that the end of the gel which was oriented towards the negative electrode is towards the top of the photograph. The lanes are numbered from left to right. […]

[3] = target: catalytic subunit of the cAMP-dependent protein kinase (Homo sapiens, UniProt P17612); assay: Quantitation of cAMP-dependent protein kinase activity using microtiter plate reader; conditions: for A570: phosphorylated peptide band
Method: Eight microliters of Promega Peptide 7 (SEQ ID NO:7) was phosphorylated by the catalytic subunit of the cAMP-dependent protein kinase. The amount of kinase used in the assay varied from 4.5 μg to 0.9 ng, diluted from a stock solution of 2.25 mg/ml. The reactions took place in a volume of 24 μl for 30 minutes at room temperature, and were stopped by heating the solutions at 95° C. for five minutes.
After heating, glycerol was added to the solutions to a final concentration of 4%. The solutions were then loaded on a 0.8% agarose gel, which was run at 100 V until the phosphorylated and non-phosphorylated bands had separated and migrated from the wells.
The agarose containing the phosphorylated peptide was excised from the gel with a razor blade and placed into Eppendorph tubes. The agarose was melted, and 145 μl agarose solution were diluted in urea and acetic acid to a final concentration of 2M and 1M, respectively, in a final volume of 250 μl.
The solutions were placed in the wells of a microtiter plate and allowed to cool. After the agarose re-solidified, the absorbance of the wells at 570 nanometers (nm) was read.

[4] = target: catalytic subunit of cAMP-dependent protein kinase (Homo sapiens, UniProt P17612); assay: Quantitation of cAMP-dependent protein kinase activity using a spectrophotometer; conditions: for A570: phosphorylated peptide band
Method: Three microliters of Promega Peptide 7 (SEQ ID NO:7) were phosphorylated by varying amounts of cAMP-dependent protein kinase. The reactions took place in a volume of 20 μl in a solution containing 3 mM ATP, 20 mM HEPES buffer (pH 7.4), and between 50 ng and 1 μg catalytic subunit of cAMP-dependent protein kinase. The mixture was incubated for 30 minutes at room temperature, and the reactions were stopped by heating the mixture at 95° C. for five minutes.
At this time, the phosphorylated and non-phosphorylated species had separated and could be detected by ultraviolet light. The phosphorylated peptide was then excised from the gel with a razor blade, and the agarose was melted by heating at 95° C. for 2 minutes. Two hundred microliters of the melted agarose were then diluted to 400 μl in a solution containing 2M urea and 1M acetic acid. The absorbance of the solution at 570 nm was then determined in a Milton-Roy Spectronic 1201 spectrophotometer.

[5] = tested on: protein kinase C; assay: Detection of small amounts of protein kinase C, agarose gel; conditions: 30 minutes at room temperature, UV light
Method: Fifteen microliters of Promega Peptide 5 (SEQ ID NO:5) were incubated in protein kinase C reaction buffer (20 mM HEPES (pH 7.4), 1.3 mM CaCl2, 1 mM DTT, 10 mM MgCl2, 200 μg/mL phosphatidyl serine, 15 mM ATP), and 1 μg Protein Kinase C for 2 hours at room temperature in a final volume of 40 μl. The reaction was stopped by heating the reaction solution to 95° C. for ten minutes.
Five microliters of Promega Peptide 5 (SEQ ID NO:5) and 6 (SEQ ID NO:6) or 2.5 μl of Promega Peptide 4 (SEQ ID NO:4) were incubated with a solution containing 18 μl protein kinase C reaction buffer (described in Example 13) and decreasing amounts of protein kinase C, containing between 60 ng and 60 picograms (pg), for 30 minutes at room temperature. Reactions were stopped by heating the reaction mixtures to 95° C. for 10 minutes.
Referring to FIG. 11, the detection of phosphorylated peptide was observed under UV light, and detection limits noted. Six hundred picograms of protein kinase C could be detected by Promega Peptide 4 (SEQ ID NO:4), 3ng by Promega Protein 5 (SEQ ID NO:5), and 3 ng by Promega Protein 6 (SEQ ID NO:6).

[6] = tested on: Brevibacterium albidum culture supernate; assay: Assays of proteases in crude media samples; conditions: 90 minutes at 37° C.
Method: (§1) Samples of culture supernate from stationary phase cultures of Thermus aquaticus (T. aquaticus) and Brevibacterium albidum (B. albidum) were made by centrifugation of a stationary phase culture at 12,000×g for 2 minutes and transfer of the supernate to fresh tubes. Diluted stocks of Promega Peptides 3 (SEQ ID NO:3), 5 (SEQ ID NO:5) and 6 (SEQ ID NO:6) were made by dilution of the original stocks of these peptides with an equal volume of 50 mM ammonium bicarbonate, pH 7.8. In three independent tubes per peptide, 10 μL of these diluted stocks were incubated with either 10 μL water, 10 μL Thermus supernate, or 10 μL Brevibacterium supernate. The incubations were performed for 90 minutes at 37° C. The samples were then loaded in a 0.9% agarose gel made with 20 mM Tris-Cl pH 8.0. The gel was then electrophoresed at 120 V for 30 minutes, and was photographed under UV light on a transilluminator as described above.
(§2) Reference is made to FIG. 15, which is a photograph of the agarose gel used to analyze the peptide species produced in the digestion of Promega Peptides 3 (SEQ ID NO:3), 5 (SEQ ID NO:5), and 6 (SEQ ID NO:6) by supernates of cultures of T. aquaticus and B, albidum. The gel was photographed under UV light as described in Example 1 and the gel is oriented such that the end of the gel which was oriented towards the negative electrode is towards the top of the photograph.

[7] = tested on: Thermus aquaticus culture supernate; assay: Assays of proteases in crude media samples; conditions: 90 minutes at 37° C.
Method: as §1, §2

[8] = 8 μl peptide, 30 minutes at room temperature

T1 sequence (Q7M135 whole entry): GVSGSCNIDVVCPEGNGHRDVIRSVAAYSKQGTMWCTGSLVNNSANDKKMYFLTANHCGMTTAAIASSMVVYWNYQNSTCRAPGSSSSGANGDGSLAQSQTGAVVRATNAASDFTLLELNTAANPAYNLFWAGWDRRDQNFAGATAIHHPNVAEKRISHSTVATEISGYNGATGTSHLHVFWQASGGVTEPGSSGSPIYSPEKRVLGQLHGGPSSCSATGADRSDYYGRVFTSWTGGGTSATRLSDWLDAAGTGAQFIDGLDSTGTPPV

LRRASLG [Kemptide]
CPM (+cAMP) ([1]; 2 μM cAMP, 4 μg cAMP-dependent protein kinase, [γ32P]ATP, two minute incubation): 471,840 CPM | Stimulation ([1]; CPM +cAMP relative to no cAMP): 82 | CPM (no cAMP) ([1]; no cAMP, 4 μg cAMP-dependent protein kinase, [γ32P]ATP, two minute incubation): 5760 CPM

Promega Peptide 7: Lissamine Rhodamine-tagged Kemptide *-L-R-R-A-S-L-G (SEQ ID NO:7) ({Lissamine Rhodamine}-LRRASLG)
digestion by Endoprotease Lys C [2]: did not show any digestion | kinase amount below which it could not be detected [3, 8]: 0.009 µg | kinase amount that saturated the system [3, 8]: more than 0.9 μg | A570 -Blank ([3]; Kinase 0.0009 μg (1:10,000)): 0.009 | A570 -Blank ([3]; Kinase 0.009 μg (1:1,000)): 0.010 | A570 -Blank ([3]; Kinase 0.09 μg (1:100)): 0.022 | A570 -Blank ([3]; Kinase 0.9 μg (1:10)): 0.107 | A570 -Blank ([3]; Kinase 4.5 μg (1:2)): 0.106 | A570 ([3]; Kinase 0.0009 μg (1:10,000)): 0.106 +/- 0.013 | A570 ([3]; Kinase 0.009 μg (1:1,000)): 0.107 +/- 0.003 | A570 ([3]; Kinase 0.09 μg (1:100)): 0.119 +/- 0.002 | A570 ([3]; Kinase 0.9 μg (1:10)): 0.204 +/- 0.003 | A570 ([3]; Kinase 4.5 μg (1:2)): 0.203 +/- 0.005 | correlation coefficient between kinase concentration and absorbance ([3]; range of 0.009 to 0.9 μg kinase added): 0.999 | A570 -Blank ([4]; Kinase 0.05 μg (1:200)): 0.009 | A570 -Blank ([4]; Kinase 0.10 μg (1:100)): 0.021 | A570 -Blank ([4]; Kinase 0.20 μg (1:50)): 0.029 | A570 -Blank ([4]; Kinase 0.50 μg (1:20)): 0.130 | A570 -Blank ([4]; Kinase 1.0 μg (1:10)): 0.163 | A570 ([4]; Kinase 0.05 μg (1:200)): 0.024 | A570 ([4]; Kinase 0.10 μg (1:100)): 0.036 | A570 ([4]; Kinase 0.20 μg (1:50)): 0.044 | A570 ([4]; Kinase 0.50 μg (1:20)): 0.145 | A570 ([4]; Kinase 1.0 μg (1:10)): 0.178

Promega Peptide 4: Lissamine Rhodamine-tagged peptide *-R-F-A-R-K-G-S-L-R-Q-K-N-V (SEQ ID NO:4) ({Lissamine Rhodamine}-RFARKGSLRQKNV)
amount of protein kinase C that could be detected [5]: Six hundred

Promega Peptide 5: Lissamine Rhodamine-tagged peptide *-Q-R-R-Q-R-K-S-R-R-T-I (SEQ ID NO:5) ({Lissamine Rhodamine}-QRRQRKSRRTI)
amount of protein kinase C that could be detected [5]: 3 ng | proteolysis by B. albidum supernate [6]: proteolysis of the peptide had taken place | proteolysis by T. aquaticus supernate [7]: proteolysis of the peptide had taken place

Sulforhodamine 101 Derivative of V^6 A^5 Kemptide ({sulforhodamine 101}-LRRASVA) [Promega Peptide 3]
proteolysis by B. albidum supernate [6]: novel peptide species made in small amount | proteolysis by T. aquaticus supernate [7]: proteolytic cleavage of the peptide had occurred

— patent US5580747A, “Non-radioactive enzyme assay” (Promega Corporation, priority 1994, dated 1996)
